According to patent publication US20070071759A1:

Target: T1, NKG2D receptor on NK cells freshly isolated from C57BL6 or on KY-2 cells (murine NK cell line) (murine) (UniProt O54709)
T1 sequence (looked up): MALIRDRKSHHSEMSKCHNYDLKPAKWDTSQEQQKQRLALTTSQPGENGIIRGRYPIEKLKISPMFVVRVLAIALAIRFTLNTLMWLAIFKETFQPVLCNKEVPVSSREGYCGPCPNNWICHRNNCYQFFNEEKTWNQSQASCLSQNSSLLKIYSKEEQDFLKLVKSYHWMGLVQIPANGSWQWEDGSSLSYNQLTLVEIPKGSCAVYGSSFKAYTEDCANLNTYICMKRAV
Test: cell-based or functional assay

redirected lysis of P815 or J774 cells by KY-2 cells: < 22%
Substance: anti-HER2 IgG3-CH3-Rae-1β fusion protein (from UniProt P01860 1-377; O08603 29-229)
NK cell-mediated killing (direct lysis, KY-2 effector cells): 15 to 59%
